Test results: article PMC10786891, “Massively parallel profiling of RNA-targeting CRISPR-Cas13d”
Positions count from the first letter of the chain named. Numbers in names are those of the source.

T1: EsCas13d, nuclease-dead (Eubacterium siraeum, UniProt B0MS50, R295A;H300A;R849A;H854A)
T1 sequence: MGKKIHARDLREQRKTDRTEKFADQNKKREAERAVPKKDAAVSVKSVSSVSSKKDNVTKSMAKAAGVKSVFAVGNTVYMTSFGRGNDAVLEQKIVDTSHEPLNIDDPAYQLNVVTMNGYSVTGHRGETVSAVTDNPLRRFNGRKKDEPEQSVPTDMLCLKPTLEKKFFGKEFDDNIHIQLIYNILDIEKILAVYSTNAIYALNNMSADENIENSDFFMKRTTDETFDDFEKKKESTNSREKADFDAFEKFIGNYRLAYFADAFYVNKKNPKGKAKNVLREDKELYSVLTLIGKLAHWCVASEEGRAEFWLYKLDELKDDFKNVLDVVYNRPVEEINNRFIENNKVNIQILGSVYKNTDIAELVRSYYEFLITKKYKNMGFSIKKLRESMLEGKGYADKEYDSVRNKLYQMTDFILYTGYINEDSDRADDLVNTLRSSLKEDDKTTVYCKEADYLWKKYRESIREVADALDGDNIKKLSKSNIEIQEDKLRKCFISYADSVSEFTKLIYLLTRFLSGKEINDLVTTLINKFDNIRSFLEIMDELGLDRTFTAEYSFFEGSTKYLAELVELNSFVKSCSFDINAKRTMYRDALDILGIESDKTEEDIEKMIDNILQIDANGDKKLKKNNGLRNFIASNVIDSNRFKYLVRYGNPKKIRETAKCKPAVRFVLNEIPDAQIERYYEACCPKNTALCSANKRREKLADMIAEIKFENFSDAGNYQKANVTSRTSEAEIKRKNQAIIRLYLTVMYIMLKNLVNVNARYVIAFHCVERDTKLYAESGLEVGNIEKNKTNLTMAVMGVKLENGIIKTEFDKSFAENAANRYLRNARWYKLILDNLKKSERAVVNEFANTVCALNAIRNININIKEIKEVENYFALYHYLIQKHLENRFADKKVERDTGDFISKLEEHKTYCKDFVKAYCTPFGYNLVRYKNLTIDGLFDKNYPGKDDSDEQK

B1: target 1 insC 3' of 9,insC 3' of 1 (mixed)
RNA 1: CACCCGUGCAAAAAUGCAGGGGUCUAAAACUGAGCGGAUAACCUCUCUAUGG
RNA 2: GGGAAUGGAUCCACAUCUACGAAUUCGUACCAUAGAGAGGUUACUCCGCUCACCCGAGAUCGGAAGAGCACACGU
B2: target 2 MT 5'PFS AUU 3'PFS AGG (mixed)
RNA 1: CACCCGUGCAAAAUUGCAGGGGUCUAAAACCUUCUCCAAAUUGUUUCAUCCU
RNA 2: GGGAAUGGAUCCACAUCUACGAAUUCAUUAGGAUGAAACAAUUUGGAGAAGAGGAGAUCGGAAGAGCACACGU
B3: target 2 MT 5'PFS UUG 3'PFS UUC (mixed)
RNA 1: B2 RNA 1
RNA 2: B2 RNA 2 with A27U, U29G, A52U, G53U, G54C
B4: target 2 MT 5'PFS AUU 3'PFS AGC (mixed)
RNA 1: B2 RNA 1
RNA 2: B2 RNA 2 with G54C
B5: target 2 MT 5'PFS UUG 3'PFS CUC (mixed)
RNA 1: B2 RNA 1
RNA 2: B2 RNA 2 with A27U, U29G, A52C, G53U, G54C
B6: target 2 MT 5'PFS AUU 3'PFS AGA (mixed)
RNA 1: B2 RNA 1
RNA 2: B2 RNA 2 with G54A
B7: target 2 MT 5'PFS AAC 3'PFS UGU (mixed)
RNA 1: B2 RNA 1
RNA 2: B2 RNA 2 with U28A, U29C, A52U, G54U
B8: target 2 MT 5'PFS AUU 3'PFS AGU (mixed)
RNA 1: B2 RNA 1
RNA 2: B2 RNA 2 with G54U
B9: target 2 MT 5'PFS AGA 3'PFS UAU (mixed)
RNA 1: B2 RNA 1
RNA 2: B2 RNA 2 with U28G, U29A, A52U, G53A, G54U
B10: target 2 MT 5'PFS UAG 3'PFS UGU (mixed)
RNA 1: B2 RNA 1
RNA 2: B2 RNA 2 with A27U, U28A, U29G, A52U, G54U
B11: target 2 MT 5'PFS CAU 3'PFS ACU (mixed)
RNA 1: B2 RNA 1
RNA 2: B2 RNA 2 with A27C, U28A, G53C, G54U
B12: target 1 insU 3' of 5,insA 3' of 4 (mixed)
RNA 1: B1 RNA 1
RNA 2: B1 RNA 2 with C44U, U45C, C47G, G48U, U50A, C51U, A52C, C53A
B13: target 2 MT 5'PFS AUU 3'PFS CGA (mixed)
RNA 1: B2 RNA 1
RNA 2: B2 RNA 2 with A52C, G54A
B14: target 2 MT 5'PFS UAG 3'PFS UGC (mixed)
RNA 1: B2 RNA 1
RNA 2: B2 RNA 2 with A27U, U28A, U29G, A52U, G54C
B15: target 2 MT 5'PFS AUU 3'PFS CGG (mixed)
RNA 1: B2 RNA 1
RNA 2: B2 RNA 2 with A52C
B16: target 2 MT 5'PFS AGA 3'PFS UAC (mixed)
RNA 1: B2 RNA 1
RNA 2: B2 RNA 2 with U28G, U29A, A52U, G53A, G54C
B17: target 2 MT 5'PFS GGA 3'PFS ACU (mixed)
RNA 1: B2 RNA 1
RNA 2: B2 RNA 2 with A27G, U28G, U29A, G53C, G54U
B18: target 2 MT 5'PFS GGA 3'PFS ACA (mixed)
RNA 1: B2 RNA 1
RNA 2: B2 RNA 2 with A27G, U28G, U29A, G53C, G54A
B19: target 2 MT 5'PFS GGA 3'PFS ACC (mixed)
RNA 1: B2 RNA 1
RNA 2: B2 RNA 2 with A27G, U28G, U29A, G53C, G54C
B20: target 2 MT 5'PFS GGA 3'PFS ACG (mixed)
RNA 1: B2 RNA 1
RNA 2: B2 RNA 2 with A27G, U28G, U29A, G53C
B21: target 2 MT 5'PFS CGU 3'PFS CGC (mixed)
RNA 1: B2 RNA 1
RNA 2: B2 RNA 2 with A27C, U28G, A52C, G54C
B22: target 2 MT 5'PFS GAU 3'PFS UUC (mixed)
RNA 1: B2 RNA 1
RNA 2: B2 RNA 2 with A27G, U28A, A52U, G53U, G54C
B23: target 1 insU 3' of 18,insG 3' of 7 (mixed)
RNA 1: B1 RNA 1
RNA 2: GGGAAUGGAUCCACAUCUACGAAUUCGUACCAUAUGAGAGGUUAUCGCGCUCACCGAGAUCGGAAGAGCACACGU
B24: target 2 MT 5'PFS ACU 3'PFS AUC (mixed)
RNA 1: B2 RNA 1
RNA 2: B2 RNA 2 with U28C, G53U, G54C
B25: target 2 MT 5'PFS ACU 3'PFS AUG (mixed)
RNA 1: B2 RNA 1
RNA 2: B2 RNA 2 with U28C, G53U
B26: target 2 MT 5'PFS CUG 3'PFS UAG (mixed)
RNA 1: B2 RNA 1
RNA 2: B2 RNA 2 with A27C, U29G, A52U, G53A
B27: target 2 MT 5'PFS ACU 3'PFS AUU (mixed)
RNA 1: B2 RNA 1
RNA 2: B2 RNA 2 with U28C, G53U, G54U
B28: target 2 MT 5'PFS AAA 3'PFS AAC (mixed)
RNA 1: B2 RNA 1
RNA 2: B2 RNA 2 with U28A, U29A, G53A, G54C
B29: target 2 MT 5'PFS UGC 3'PFS CAC (mixed)
RNA 1: B2 RNA 1
RNA 2: B2 RNA 2 with A27U, U28G, U29C, A52C, G53A, G54C
B30: target 2 MT 5'PFS CUG 3'PFS UAC (mixed)
RNA 1: B2 RNA 1
RNA 2: B2 RNA 2 with A27C, U29G, A52U, G53A, G54C
B31: target 2 MT 5'PFS AAC 3'PFS CCA (mixed)
RNA 1: B2 RNA 1
RNA 2: B2 RNA 2 with U28A, U29C, A52C, G53C, G54A
B32: target 2 MT 5'PFS GCA 3'PFS AGG (mixed)
RNA 1: B2 RNA 1
RNA 2: B2 RNA 2 with A27G, U28C, U29A
B33: target 2 MT 5'PFS AAC 3'PFS CCG (mixed)
RNA 1: B2 RNA 1
RNA 2: B2 RNA 2 with U28A, U29C, A52C, G53C
B34: target 1 C4U,A20C (mixed)
RNA 1: B1 RNA 1
RNA 2: GGGAAUGGAUCCACAUCUACGAAUUCGUACCCUAGAGAGGUUAUCCGUUCACCGAGAUCGGAAGAGCACACGU
B35: target 2 MT 5'PFS CAU 3'PFS ACG (mixed)
RNA 1: B2 RNA 1
RNA 2: B2 RNA 2 with A27C, U28A, G53C
B36: target 2 MT 5'PFS UCU 3'PFS AUC (mixed)
RNA 1: B2 RNA 1
RNA 2: B2 RNA 2 with A27U, U28C, G53U, G54C
B37: target 2 MT 5'PFS UAU 3'PFS CAU (mixed)
RNA 1: B2 RNA 1
RNA 2: B2 RNA 2 with A27U, U28A, A52C, G53A, G54U
B38: target 2 MT 5'PFS AGG 3'PFS CUA (mixed)
RNA 1: B2 RNA 1
RNA 2: B2 RNA 2 with U28G, U29G, A52C, G53U, G54A

target: T1, EsCas13d, nuclease-dead; assay: crRNA (strand 1, pre-loaded); Mg2+; 40 mM Tris-HCl pH 7.5, 150 mM NaCl, 6 mM MgCl2, 1 mM DTT, 0.1% Tween-20, 0.2 mg/ml BSA; 25 C; 10 min per concentration, then washed; details: tags: His6-TwinStrep-SUMO cleaved; N-terminal SNAP kept (SNAP-Surface 488); label: 3' end held by stalled T7 RNA polymerase

| Binder | Kd |
| --- | --- |
| B1 | 9.4 ± 0.6 nM |
| B2 | 13 ± 2.9 nM |
| B3 | 64 ± 20 nM |
| B4 | 6.4 ± 0.8 nM |
| B5 | 37 ± 8 nM |
| B6 | 5.4 ± 0.8 nM |
| B7 | 6.9 ± 1.2 nM |
| B8 | 4.5 ± 0.4 nM |
| B9 | 7.4 ± 1.4 nM |
| B10 | 4.9 ± 0.5 nM |
| B11 | 9 ± 1.9 nM |
| B12 | 16.2 ± 1.2 nM |
| B13 | 5.5 ± 0.4 nM |
| B14 | 2.73 ± 0.25 nM |
| B15 | 9.6 ± 1.7 nM |
| B16 | 6.5 ± 1.1 nM |
| B17 | 9.8 ± 0.7 nM |
| B18 | 10.4 ± 1.2 nM |
| B19 | 14.1 ± 2.6 nM |

| Binder | Kd |
| --- | --- |
| B20 | 13.9 ± 1.4 nM |
| B21 | 11.1 ± 1.7 nM |
| B22 | 28 ± 7 nM |
| B23 | 25.5 ± 1.2 nM |
| B24 | 4.1 ± 0.4 nM |
| B25 | 4.9 ± 0.6 nM |
| B26 | 3.1 ± 0.5 nM |
| B27 | 4.4 ± 0.6 nM |
| B28 | 4.6 ± 0.7 nM |
| B29 | 18 ± 4 nM |
| B30 | 2.76 ± 0.35 nM |
| B31 | 13 ± 4 nM |
| B32 | 13.1 ± 1.8 nM |
| B33 | 5.9 ± 0.6 nM |
| B34 | ~90 nM |
| B35 | 7.9 ± 2.5 nM |
| B36 | 7.3 ± 1 nM |
| B37 | 24.1 ± 2.7 nM |
| B38 | 6.7 ± 1.1 nM |
